According to doi:10.1101/2022.05.30.493956 (bioRxiv, 2022):
Numbering of substitutions follows the chain as printed. Numbers in names are those of the source.

B1: Full length human lamin A W514R (natural protein, UniProt P02545 1-664, looked up)
chain: METPSQRRATRSGAQASSTPLSPTRITRLQEKEDLQELNDRLAVYIDRVRSLETENAGLRLRITESEEVVSREVSGIKAAYEAELGDARKTLDSVAKERARLQLELSKVREEFKELKARNTKKEGDLIAAQARLKDLEALLNSKEAALSTALSEKRTLEGELHDLRGQVAKLEAALGEAKKQLQDEMLRRVDAENRLQTMKEELDFQKNIYSEELRETKRRHETRLVEIDNGKQREFESRLADALQELRAQHEDQVEQYKKELEKTYSAKLDNARQSAERNSNLVGAAHEELQQSRIRIDSLSAQLSQLQKQLAAKEAKLRDLEDSLARERDTSRRLLAEKEREMAEMRARMQQQLDEYQELLDIKLALDMEIHAYRKLLEGEEERLRLSPSPTSQRSRGRASSHSSQTQGGGSVTKKRKLESTESRSSFSQHARTSGRVAVEEVDEEGKFVRLRNKSNEDQSMGNWQIKRQNGDDPLLTYRFPPKFTLKAGQVVTIWAAGAGATHSPPTDLVRKAQNTWGCGNSLRTALINSTGEEVAMRKLVRSVTVVEDDEDEDGDDLLHHHHGSHCSSSGDPAEYNLRSRTVLCGTCGQPADKASASGSGAQVGGPISSGSSASSVTVTRSYRSVGGSGGGSFGDNLVTRSYLLGNSSPRTQSPQNCSIM
B2: Full length human lamin A protein/pre-lamin A (664 amino acids), wild type (natural protein, UniProt P02545 1-664, looked up)
chain: B1 chain with R514W

Tests used:
[1] = molecular target: the molecule itself; test: far-UV circular dichroism
[2] = molecular target: the molecule itself; test: scanning electron microscopy of in vitro assembled purified protein

Row | Protein | binding result [1] | binding result [2]
1 | B1 | binds | –
2 | B2 | – | binds
